Experimental data taken from publication PMC11012335, “Hfq-Antisense RNA I Binding Regulates RNase E-Dependent RNA Stability and ColE1 Plasmid Copy Number”.

Target: Hfq WT (Escherichia coli K-12 MG1655, UniProt P0A6X3 1-102)
Assay: EMSA; EMSA: 20 mM Tris-HCl pH 7.6, 0.5 M NaCl, 1 mM EDTA, 1% glycerol, 20 min at 25 C; native PAGE in 0.5x TBE at 4 C
Conditions: protein: recombinant; tags: His tag removed with AcTEV protease; label: 3' fluorescein; single-stranded

GGGACAGUAUUUG (ssRNA, 3' fluorescein) [BR13]: binds.
